Laboratory results published in article PMC4232046.
pKd: −log10 of the molar value.

Key:
[1] = biological target: Aspergillus fumigatus core CCAAT-binding complex (HapB(230–299), HapC(40–137), HapE(47–164)) (Aspergillus fumigatus); assay: SPR; Biacore T200, 25°C; biotinylated 37-bp cccA promoter duplex (full motif) on streptavidin-coated CM3 chip; CBC injected, HapX(24–158) co-injected on preformed binary CBC/DNA complexes in the steady-state phase; 10 mM phosphate pH 7.4, 2.7 mM KCl, 137 mM NaCl, 1 mM DTT, 0.005% P20, 10 μg/ml poly(dI-dC); 1:1 model with mass transport term
[2] = biological target: CBC (HapB/HapC/HapE core CCAAT-binding complex);HapX(24-158) (Aspergillus fumigatus;Aspergillus fumigatus) (UniProt Q4WER3); assay: SPR; details: SPR Biacore T200, 25 C; 10 mM phosphate pH 7.4, 2.7 mM KCl, 137 mM NaCl, 1 mM DTT, 0.005% surfactant P20, 10 ug/ml poly(dI-dC); biotin-DNA on streptavidin CM3 …
[3] = system: CBC (HapB/HapC/HapE core CCAAT-binding complex) (Aspergillus fumigatus); assay: SPR; details: SPR Biacore T200, 25 C; 10 mM phosphate pH 7.4, 2.7 mM KCl, 137 mM NaCl, 1 mM DTT, 0.005% surfactant P20, 10 ug/ml poly(dI-dC); biotin-DNA on streptavidin CM3 …

With “Aspergillus fumigatus HapX(24–158) (from UniProt Q4WER3 24-158) (domain or fragment)” as the substance, how does the KD on CBC-coated DNA (preformed CBC/DNA complex, 37-bp cccA promoter duplex) [1] read?
Its KD on CBC-coated DNA (preformed CBC/DNA complex, 37-bp cccA promoter duplex) is 1.97 nM.

What about the stoichiometry N (HapX chains per CBC) [1] of the same substance?
Its stoichiometry N (HapX chains per CBC) is 2.

How did the pKd [2] turn out when “AAATCCACCAATCAACGCCTCCGTGATTGTCAGCAAT (double strand) [cccAp-369-37]” was run?
The pKd was 8.71.

What about the pKd [3] of the same substance?
Its pKd is 9.15.
